We go through one molecule from patent US20230086069A1 (SYSTIMMUNE, published 2023).

In experiment [1] the target is T1, rhesus CD19 on cells (CD20+ B cells of rhesus PBMC) (rhesus, UniProt F7F486 20-557).
T1 construct: also called Rhesus CD20+
T1 sequence: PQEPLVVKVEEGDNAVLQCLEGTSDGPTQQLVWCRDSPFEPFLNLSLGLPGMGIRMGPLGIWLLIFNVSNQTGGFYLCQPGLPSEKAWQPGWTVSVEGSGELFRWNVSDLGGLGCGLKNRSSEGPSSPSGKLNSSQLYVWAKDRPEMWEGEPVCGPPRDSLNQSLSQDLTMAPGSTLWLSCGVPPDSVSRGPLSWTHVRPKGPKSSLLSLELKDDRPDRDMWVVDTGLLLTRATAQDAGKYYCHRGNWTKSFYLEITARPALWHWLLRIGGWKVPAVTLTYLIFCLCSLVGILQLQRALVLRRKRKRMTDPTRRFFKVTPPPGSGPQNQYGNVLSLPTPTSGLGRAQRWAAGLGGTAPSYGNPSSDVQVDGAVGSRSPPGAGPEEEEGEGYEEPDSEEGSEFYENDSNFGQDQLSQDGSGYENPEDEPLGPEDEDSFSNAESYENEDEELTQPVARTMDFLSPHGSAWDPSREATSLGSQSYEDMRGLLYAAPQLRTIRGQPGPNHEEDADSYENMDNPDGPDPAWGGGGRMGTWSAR
The experiment is described as follows: flow cytometry, dose response on rhesus CD20+ lymphocytes. As for the experimental part:
(§1) To determine if the humanization alters the cross reactivity, the flow cytometry was carried out. The SI-63C2 antibody was used to bind the peripheral blood mononuclear cells derived from human, cynomolgus, and rhesus, respectively. Lymphocytes were gated based on forward and side scatter, followed by single cells based on the ratio of forward scatter signal height and area. Viable CD20+ B-cell and CD20− lymphocytes are gated based on the exclusion of membrane permeable amine reactive dye and the binding level of CD20 antibody (clone 2H7, Biolegend). Binding of the labelled antibody was determined as the geometric mean fluorescence intensity (gMFI) of the cell population for the fluorescent conjugate's emission channel. As shown in the histogram analysis in FIG. 4, the SI-63C2 antibody binds to CD20+ B cells from human, cynomolgus, and rhesus (4A) but not to their CD20− lymphocytes (4B).

Experiment [2] concerns the target T2, cynomolgus CD19 on cells (CD20+ B cells of cynomolgus PBMC) (cynomolgus).
T2 construct: whole, on cells; also called Cynomolgus CD20+
The experiment is described as follows: flow cytometry, dose response on cynomolgus CD20+ lymphocytes. The procedure: as §1
A general note: Flow cytometry measures light scatter and fluorescence of single cells or particles in a stream.

Experiment [3] concerns the target T3, human CD19 protein (R&D Biosystems Cat #9269-CD-050) (human, UniProt P15391 20-291).
T3 sequence (looked up): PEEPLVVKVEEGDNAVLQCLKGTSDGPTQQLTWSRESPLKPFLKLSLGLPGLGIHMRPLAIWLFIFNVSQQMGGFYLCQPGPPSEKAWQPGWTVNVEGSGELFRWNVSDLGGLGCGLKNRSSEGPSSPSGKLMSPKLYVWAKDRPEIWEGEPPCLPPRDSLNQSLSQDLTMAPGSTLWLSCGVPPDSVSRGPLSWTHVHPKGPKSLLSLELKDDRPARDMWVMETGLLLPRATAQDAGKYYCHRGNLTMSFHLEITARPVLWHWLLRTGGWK
Put plainly: BLI (Octet), antibody on anti-human Fc biosensor, human CD19 as analyte. As for the experimental part:
(§2) The purified SI-63C1, SI-63C2, and SI-34C1 antibodies were tested for their binding affinity using biolayer interferometry (ForteBio OctetRED 384). The antibodies were bound to anti-human Fc biosensors, and human CD19 protein (R&D Biosystems Cat #9269-CD-050) was used as the analyte in a 4-point series of 2-fold dilutions with the highest concentration starting at 200 nM.
(Biolayer interferometry detects binding as a change in optical thickness at a sensor tip.)

Experiment [4] deals with T4, human CD19 on cells (CD20+ B cells of human PBMC; Raji lymphoma cells) (human, UniProt P15391 20-556).
T4 construct: whole, on cells; also called Human CD20+
T4 sequence (looked up): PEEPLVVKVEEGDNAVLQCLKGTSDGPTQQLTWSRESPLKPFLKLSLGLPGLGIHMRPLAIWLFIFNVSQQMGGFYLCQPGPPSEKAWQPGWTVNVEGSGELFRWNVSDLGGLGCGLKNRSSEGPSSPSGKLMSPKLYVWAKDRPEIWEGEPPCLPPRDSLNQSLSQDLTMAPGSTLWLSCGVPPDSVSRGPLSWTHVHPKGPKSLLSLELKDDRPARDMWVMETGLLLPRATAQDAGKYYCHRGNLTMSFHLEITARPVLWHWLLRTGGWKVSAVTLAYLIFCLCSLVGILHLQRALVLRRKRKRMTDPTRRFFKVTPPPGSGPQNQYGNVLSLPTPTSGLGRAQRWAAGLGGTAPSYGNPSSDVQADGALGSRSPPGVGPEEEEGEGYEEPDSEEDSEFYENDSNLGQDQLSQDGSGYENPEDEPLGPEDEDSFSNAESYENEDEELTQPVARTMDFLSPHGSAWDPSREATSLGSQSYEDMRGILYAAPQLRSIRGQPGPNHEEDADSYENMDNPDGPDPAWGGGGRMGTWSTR
Put plainly: flow cytometry, dose response on human CD20+ lymphocytes; human CD20+ lymphocytes. As for the experimental part: as §1

For experiment [5], the target named is T3, human CD19 protein (R&D Biosystems Cat …). The experiment is described as follows: BLI (Octet), antibody on anti-human Fc biosensors, CD19 protein as analyte; human CD19. As for the experimental part:
as §2

B1: SI-63C2 (recombinant mAb with H1 humanized anti-CD19 variable sequence) (antibody, V domains shown)
VH: QVTLKESGPGLVQPGQTLRLTCAFSGFSLSTSGMGVGWIRQPPGKGLEWLAHIWWDDDKRYNPALKSRLTISKDTSKNQVYLQMNSLDAEDTAVYYCARMELWSYYFDYWGQGTLVTVSS
VL: ENVLTQSPASLSASPGERVTITCSASSSVSYMHWYQQKPGQAPKLWIYDTSKLASGVPSRFSGSGSGNDHTLTISSMEPEDFATYYCFQGSVYPFTFGQGTKLEIKR
notes: H1 VH/VL on human kappa and human IgG CH1-Fc; also called SI-huCD19; humanized BU12, H1
Broadly, the EC50 is the concentration that produces a half-maximal response. The Kd is the free concentration of one partner at which half of the binding sites on the other are occupied at equilibrium, for simple one-to-one binding. The low end stands for tighter binding, the high end for weaker binding. The koff is the rate constant with which the complex falls apart. High values mean a short-lived complex, low ones a long-lived complex. The term kon denotes the rate constant with which the complex forms. Consider B1, for which the EC50 in experiment [1] was determined as 0.666 µg/mL; in experiment [2] it was 2.9 µg/mL; in experiment [4], 0.0397 µg/mL. Besides, the Kd in experiment [3] came to 3.77 nM; in experiment [5] it was 3.8 nM. For the same molecule, the koff in experiment [3] is 0.000229 s⁻¹. The kon in experiment [3] came out at 60800 M⁻¹ s⁻¹.
